Test results reported in patent US20130035289A1, “PHARMACEUTICAL COMPOSITION FOR TREATMENT OF THROMBOSIS-RELATED DISEASES COMPRISING A FRAGMENT OF PROLACTIN (PRL)-GROWTH HORMONE (GH)-PLACENTAL LACTOGEN (PL)-FAMILY PROTEIN” (UNIVERSITE DE LIEGE, priority 2010, published 2013).

How the values were obtained:
PAI-1 = biological target: T1, PAI-1 (Homo sapiens, UniProt P05121); assay: Co-immunoprecipitation with anti-PAI-1 antibody and Western blot, human PAI-1; format: binding; conditions: for complex with recombinant wild type PAI-1 (co-immunoprecipitation): 10 min at 37° C.; for complex with endogenous PAI-1 from HUVEC culture medium: conditioned medium of HUVEC; for interaction with PAI-1 in plasma samples: human plasma
T1 construct: gift of Pr; P. Declerck
Procedure: The interaction was further confirmed by pull-down affinity assays. For the immunoprecipitation 4 μg of recombinant 16K hPRL or 14 hGH were mixed with 3 μg of recombinant wt PAI-1, 500 μl of conditioned media from HUVEC cells, 300 μl of human plasma or 100 μl of mouse plasma. The mixtures were incubated for 10 min at 37° C. 6 μg of mouse monoclonal antibody against PAI-1 (clone 33H1F7, recognize human and mouse PAI-1) was added to each tube and incubated overnight at 4° C. under rotation. For the experiments with mice expressing 16K hPRL, 300 μl of plasma from mice injected with Null-Ad or 16K-Ad adenovirus were collected 5 days after virus injection, and immunoprecipitation was performed as described above with same PAI-1 monoclonal antibody (33H1F7). Fifty microliters of protein A agarose was added to the mix and incubated overnight at 4° C. under rotation. After centrifugation for 1 min at 6000 rpm the supernatants were discarded and the pellets (containing the beads) were washed 5 times with PBS. After a new centrifugation, the beads were resuspended in 30 μl 1×β-mercaptoethanol loading buffer and boiled at 100° C. for 5 min, then left on ice for 5 min. The beads were centrifuged for 5 min at 4° C., then the supernatants were subjected to SDS-PAGE (12% acrylamide) for Western blot analysis.
For Western Blot Analysis cytoplasmic cell lysate, samples of different CoIP and mouse plasma were separated by SDS-PAGE (12% and 10%) and transferred to a polyvinylidene fluoride membrane (Milipore Corp., Bedford, Mass.). Blots were blocked overnight with 5% milk in Tris-buffered saline with 0.1% Tween 20 and probed for 1 h at RT with primary antibodies: rabbit polyclonal anti-hPRL (DAKO) or rabbit polyclonal anti hGH (home made). After three washes with Tris-buffered saline containing 0.1% Tween 20, antigen-antibody complexes were detected with peroxidase-conjugated goat anti-rabbit secondary antibody and an enhanced fluoro-chemiluminescent system (ECL-plus; Amersham Biosciences, Arlington Heights, Ill.).

uPA [1] = biological target: T2, uPA (Homo sapiens, UniProt P00749+P05121); assay: Double immunofluorescence staining on HUVEC, co-localization with uPA; format: cell-based; conditions: non permeabilized, 160 ng/ml
T2 construct: endogenous in cells; host or cells: HUVEC
Procedure: HUVEC were grown to 70% on gelatin-coated 35 mm dishes. After incubation at 37° C. with 14K hGH (160 ng/ml) or 16K hPRL (160 ng/ml), cells were washed with PBS at room temperature, non permeabilized and incubated for 1 hr at room temperature with mouse anti uPA (American Diagnostica INC. Greenwich, Conn.) 1/100, Rabbit anti Prolactin (Dako) 1/100 or rabbit anti human GH (home made) 1/100. Endothelial cells were washed in PBS and incubated with FITC horse anti mouse antibody (Vector Laboratory) and Texas Red Goat anti rabbit (Jackson Laboratory).
HUVECs were grown to 70% confluence on gelatin-coated 35-mm dishes. After incubation for 3 h with 14K GH (160 ng/ml) or 16K PRL (160 ng/ml), the cells were washed with PBS at room temperature and incubated for 1 h at room temperature under non-permeabilization conditions with mouse anti uPA (American Diagnostica INC) diluted 1/100, rabbit anti prolactin (Dako) diluted 1/100, or rabbit anti human GH (home made) diluted 1/100. Endothelial cells were washed in PBS and incubated with FITC horse anti mouse (Vector Laboratory) and Texas red goat anti rabbit antibodies (Jackson Laboratory). […] After 3 washes in PBS for 10 min, the slides were covered with coverslips in mounting medium (Victor Laboratories Inc.) and analyzed by fluorescence microscopy.

uPA [2] = assay: Immunoprecipitation with uPA in presence or absence of PAI-1; format: binding
Procedure: Western blot analysis of 16K PRL and 14K GH after their immunoprecipitation with uPA in the presence or in the absence of PAI-1. r14K GH and r16K PRL: recombinant proteins controls loaded on gels, no IP performed. (b) HUVEC were incubated with 14K GH or 16K PRL for 2 hours and then subjected to immunofluorescence analysis for uPA and 14K GH or 16K PRL Labellings appears in white for uPA (left panels), 14K GH or 16K PRL (middle panels).

endothelial cells [3] = assay: Endothelial cell proliferation (BrdU incorporation); format: cell-based, bovine; conditions: for anti-proliferative function: down-regulation of PAI-1 expression by si-RNA; for anti-proliferation effect: recombinant wild type PAI-1 added to culture medium
Procedure: The cells were plated in 96-well culture plates at a density of 2,500 cells per well in 10% FCS/DMEM and allowed to adhere for 24 h. Then complete medium was replaced with SFM for 24 h. […] Proliferation was analysed 24 h later by measuring BrdU incorporation by means of the Cell Proliferation ELISA, BrdU (Colorimetric) (Roche, Clinical Laboratories, Indianapolis, Ind.). […] ID NO: 35); PAI-1 […] ID NO: 36).

endothelial cells [4] = assay: Endothelial cell adhesion assay on vitronectin; format: cell-based, bovine; conditions: for increase of cell adhesion: absence of PAI-1 (si-RNA); for pro-adhesion effect: recombinant wild type PAI-1 added to culture medium
Text: ID NO: 35); PAI-1 […] ID NO: 36).

PAI-1/tPA complex = biological target: T3, PAI-1/tPA complex (Homo sapiens, UniProt P05121); assay: Complex formation between PAI-1 and tPA by SDS-PAGE (silver staining); format: biochemical; conditions: PAI-1 pre-incubated 10 min at 37° C. with 16K hPRL (5 μg) or 14K hGH (4 μg), then tPA
T3 construct: purchased Calbiochem (tPA); PAI-1 a gift of Pr; P. Declerck
Procedure: tPA/PAI-1 complex was formed 10 min after their incubation at 37° C. Pre-incubation of PAI-1 (4 μg) with 16K hPRL (5 μg) or 14K hGH (4 μg) during 10 min at 37° C., followed by a second 10 min incubation with tPA (2 μg) was stopped by the addition of sample buffer containing 5% β-Mercaptoethanol. Samples are heated at 95° C. before being analysed by SDS-PAGE. Silver staining was performed on the gel to visualize protein bands and complexes.

[5] = absence of PAI-1, data not shown

T1 sequence (P05121 24-402): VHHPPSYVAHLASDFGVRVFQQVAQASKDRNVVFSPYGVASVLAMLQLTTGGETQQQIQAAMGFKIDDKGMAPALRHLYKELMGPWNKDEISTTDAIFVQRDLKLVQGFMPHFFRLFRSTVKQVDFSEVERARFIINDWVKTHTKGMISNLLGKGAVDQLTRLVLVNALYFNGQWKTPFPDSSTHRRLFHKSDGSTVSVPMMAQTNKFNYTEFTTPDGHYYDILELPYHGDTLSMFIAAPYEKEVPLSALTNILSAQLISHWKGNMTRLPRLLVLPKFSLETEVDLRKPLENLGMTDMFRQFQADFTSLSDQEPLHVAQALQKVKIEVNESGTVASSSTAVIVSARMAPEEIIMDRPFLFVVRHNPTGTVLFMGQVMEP
T3 sequence (P05121 24-402, one chain of several): as the sequence (P05121 24-402) above

Row | Molecule | complex with recombinant wild type PAI-1 (co-immunoprecipitation) (PAI-1) | complex with endogenous PAI-1 from HUVEC culture medium (PAI-1) | interaction with PAI-1 in plasma samples (PAI-1) | co-localization with uPA (uPA [1]) | complex with uPA (immunoprecipitation) (uPA [2]; [5]) | complex with uPA (immunoprecipitation) (uPA [2]; in the presence of PAI-1) | anti-proliferative function (endothelial cells [3]) | anti-proliferation effect (endothelial cells [3]) | increase of cell adhesion (endothelial cells [4]) | pro-adhesion effect (endothelial cells [4]) | PAI-1/tPA complex formation (PAI-1/tPA complex)
1 | 16K hPRL: 16K N-terminal human prolactin fragment, recombinant, produced and purified from E. coli (protein) LPICPGGAARCQVTLRDLFDRAVVLSHYIHNLSSEMFSEFDKRYTHGRGFITKAINSCHTSSLATPEDKEQAQQMNQKDFLSLIVSILRSWNEPLYHLVTEVRGMQEAPEAILSKAVEIEEQTKRLLEGMELIVSQVHP | formation of 16K PRL/PAI-1 | able to form a complex | interaction was also demonstrated | co-localised at the cell surface | does not form complex | formation of uPA/PAI-1/16K PRL | reduced significantly | reduced significantly | not seen | reduced significantly | partially inhibit
2 | 14K hGH: 14K N-terminal fragment of human growth hormone, recombinant, produced and purified from E. coli (protein) MFPTIPLSRLFDNAMLRAHRLHQLAFDTYQEFEEAYIPKEQKYSFLQNPQTSLSFSESIPTPSNREETQQKSNLELLRISLLLIQSWLEPVQFLRSVFANSLVYGASDSNVYDLLKDLEEGIQTLMGRLEDGSP | 14K GH/PAI-1 | able to form a complex | interaction was also demonstrated | co-localised at the cell surface | does not form complex | uPA/PAI-1/14K GH complexes | reduced significantly | reduced significantly | not seen | reduced significantly | completely abolished
